Source: patent US9073982B2, “Targets for regulation of angiogenesis” (The University of North Carolina at Chapel Hill, priority 2008, dated 2015)
Entries after “also recorded” stand apart in the source; their conditions may differ.

How the values were obtained:
SVR angiosarcoma cells = assay: SVR angiosarcoma cell tube formation assay; assay type: cell-based, mouse; settings: sera at 1:100 dilution
Procedure: The tube formation properties of SFRP2 on MEC cells were evaluated using an endothelial cell tube formation assay. ECMATRIX (Chemicon) was thawed, diluted and solidified in a 96 well plate according to the manufactures instructions. 1×10^4 cells/well in 150 μl of DMEM (cellgro) with 10% FBS (HyClone) and a concentration range (3-3000 pM) of SFRP2 (US Biologicals) were seeded onto the matrix and returned to 37° C., 5% CO2 for 8 hours. Images were acquired using the Nikon Eclipse TS100 microscope at 4× magnification with a Nikon CoolPix 995 digital camera. Results were quantified by counting the number of branch point. To evaluate whether tacrolimus inhibits SFRP2 induced tube formation, MEC cells were treated as above with SFRP2 30 nM with and without tacrolimus (1 μM-100 uM) for 8 hours and branch points were determined as described above. To evaluate whether inhibitors of SFRP2-mediated angiogenesis would inhibit the growth of SVR tumor cells, SVR cells were treated with tacrolimus (1 μM-100 μM) or with a rabbit polyclonal antibody to SFRP-2 (H-140) (Santa Cruz Biotechnology, Santa Cruz, Calif., catalogue 4 sc-13940) in the tube formation assay.
As a further test of the contribution of SFRP2 to endothelial tube formation, it was evaluated whether loss of function of SFRP2 would inhibit SVR angiosarcoma tube formation. This was studied two different ways, first with a blocking antibody to SFRP2, and then using siRNA to SFRP2. SVR cells were plated in MATRIGEL in a tube formation assay and treated with a polyclonal antibody to SFRP2. […] After 72 h of transfection using LIPOFECTAMINE™ RNAiMAX Transfection reagent (Invitrogen) according to the manufacturer's protocol, cells were harvested and ready for Western blot analyses and tube formation assay.
Monoclonal antibodies for the epitope corresponding to AbB (AA202-AA220) were prepared. […] The angiosarcoma cells were suspended in 150 μl of antibody containing growth media for 90 different samples and control media, After 6 hours, pictures were taken and the number of branch points for each well was counted. […]

[1] = test system: MDA-MB-231 breast cancer xenografts; assay: MDA-MB-231 breast cancer xenografts in nude mice; assay type: in vivo; settings: 4 mg/kg i.v. twice weekly
Procedure: The SFRP2 MAb subclone 80.8.6 was next tested with MDA-MB-231 breast cancer xenografts. Six week old female nude mice were injected with 1×10^6 MDA-MB-231 cells. After 4 weeks, when tumors were palpable, mice received SFRP2 MAb (80.8.6) 4 mg/kg i.v. twice weekly (n=12), and controls received equal volumes of buffer. At day 8 the median tumor volume for controls was 1200 mm^3, and for SFRP2 MAb treated mice was 580 mm^3, which represents a 52% decrease in tumor volume (p=0.04, two-tailed student's t-test).

[2] = test system: SVR angiosarcoma xenografts; assay: SVR angiosarcoma xenografts in nude mice; assay type: in vivo
Procedure: To test the ability of tacrolimus to inhibit angiogenesis in vivo, SVR mouse angiosarcoma cells (0.5×10^6) were injected into the flank of 6-week-old nude male mice obtained from Charles River Breeding Laboratories. Treatment was initiated on the day after inoculation. Mice received 3 mg/kg/daily tacrolimus or vehicle control suspended in 20% Intralipid (Baxter Healthcare, Deerfield, Ill.) in a total volume of 0.3 ml intraperitoneally (i.p.), and were treated daily for 19 days. Serial caliper measurements of perpendicular diameters were used to calculate tumor volume using the following formula: (shortest diameter)^2×(longest diameter)×0.52. Differences in tumor volume over time were analyzed with a two way ANOVA. A P value of ≦0.05 indicated a statistically significant reduction in tumor growth of the treated group compared to the control group. […] Treatment with tacrolimus reduced mean tumor volume by 46% at day 19 (589±129 mm^3 vs 315±93 mm^3, two-way ANOVA, p=0.04, FIG. 26).
The ability of a monoclonal antibody recognizing SFRP2 to inhibit tumor growth in vivo was tested in a nude mouse assay. The SFRP2 MAb subclone 80.8.6 was first tested with SVR angiosarcoma xenografts. Six week old nude mice were injected with 1×10^6 SVR angiosarcoma cells. The day after injections treated mice received SFRP2 MAb(80.8.6) 4 mg/kg i.v. twice weekly (n=5), and controls received equal volumes of buffer. At day 14 there was a 65% decrease in tumor volume (*p=0.03, two-tailed student's t-test) (FIG. 34).

AbB: sera from mouse immunized against SFRP2 epitope amino acids AA202-AA220 (EITYINRDTKIILETKSKTC)
inhibition of SVR tube formation by sera compared to control mouse sera (SVR angiosarcoma cells): inhibited SVR tube formation; also recorded: greatest inhibition

AbC: sera from mouse immunized against SFRP2 epitope amino acids AA270-AA295 (ITSVKRWQKGQREFKRISRSIRKLQC)
inhibition of SVR tube formation by sera compared to control mouse sera (SVR angiosarcoma cells): inhibited SVR tube formation; also recorded: greatest inhibition

B1: SFRP2 MAb (80.8.6): monoclonal antibody produced by hybridoma cell line UNC 68-80 (subclone 80.8.6), ATCC PTA-11762; VH SEQ ID NO:13, VL SEQ ID NO:15 (antibody, V domains shown)
VH: QVQLQQPGAELVQPGASVMLSCKASGFTFTRYWWHWVRQTPGRGLEWIGRIDPNSGTTRFIEKFKTKATLTVDKPSSTAYMHLSSLTSEDSAVYYCARWGPYYGYAMDYWGPGTSVTVSS
VL: QIVLTQSPAIMSASPGQKVTITCSASSSVTYMHWYQQKLGSSPKLWIYDTSRLAPGSPARFSGSGSGTSYSLTISSMETEDAASYFCHQWSTYPPTFGTGTKLEIQ
modifications: Heavy chain variable region sequence; Light chain variable region sequence
toxicity or weight loss [1]: No toxicity or weight loss
decrease in tumor volume ([1]; day 8): 52%
median tumor volume ([1]; day 8): 580 mm^3
toxicity or weight loss ([2]; 4 mg/kg i.v. twice weekly): No toxicity or weight loss
decrease in tumor volume ([2]; 4 mg/kg i.v. twice weekly, day 14): 65%
growth of SVR angiosarcoma xenografts ([2]; nude mice): inhibits the growth
